Residue numbers refer to the chain shown, from its start. Numbers in names are those of the source. Where “and” joins values, the source holds several entries; their conditions need not be identical. Equal entries are not always repeated.

Test [1] deals with T1, human LIV-1 (human, UniProt Q13433 29-755).
T1 construct: also called hLIV-1; Q13433
T1 sequence: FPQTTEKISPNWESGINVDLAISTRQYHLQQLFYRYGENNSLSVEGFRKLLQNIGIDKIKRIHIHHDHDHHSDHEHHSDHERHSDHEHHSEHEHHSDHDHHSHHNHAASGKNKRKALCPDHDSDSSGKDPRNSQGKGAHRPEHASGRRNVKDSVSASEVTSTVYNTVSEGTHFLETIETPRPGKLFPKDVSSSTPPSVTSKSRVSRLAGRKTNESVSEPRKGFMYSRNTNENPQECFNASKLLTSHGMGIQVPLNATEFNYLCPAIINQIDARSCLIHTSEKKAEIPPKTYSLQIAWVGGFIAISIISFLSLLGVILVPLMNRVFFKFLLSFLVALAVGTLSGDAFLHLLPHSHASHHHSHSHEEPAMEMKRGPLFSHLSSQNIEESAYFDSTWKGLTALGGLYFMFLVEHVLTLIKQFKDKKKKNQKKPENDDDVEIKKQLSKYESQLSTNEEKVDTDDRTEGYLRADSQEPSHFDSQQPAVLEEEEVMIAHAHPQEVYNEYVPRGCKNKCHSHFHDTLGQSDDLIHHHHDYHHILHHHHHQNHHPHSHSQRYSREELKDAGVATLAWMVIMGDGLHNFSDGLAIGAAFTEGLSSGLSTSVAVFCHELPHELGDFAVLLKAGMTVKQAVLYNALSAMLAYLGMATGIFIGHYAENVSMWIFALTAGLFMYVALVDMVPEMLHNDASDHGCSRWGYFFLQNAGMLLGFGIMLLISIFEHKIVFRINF
Put plainly: saturation binding of AF647-labelled antibody, flow cytometry, CHO (hLIV-1) cells. The method, then: (§1) 1×10⁵ antigen expressing cells (either MCF7 cells (ATCC) expressing human LIV-1, a transfected CHO cell line expressing human LIV-1 or a transfected CHO cell line expressing cyno LIV-1) were aliquoted per well of a 96-well v-bottom plates. […] Cells were pelleted and washed 3× with PBS/BSA. The cells were then pelleted and resuspended in 125 μL of PBS/BSA. Fluorescence was analyzed by flow cytometry, using percent of saturated fluorescent signal to determine percent bound and to subsequently calculate apparent Kd.
A general note: In flow cytometry, cells or beads pass a laser one at a time.

The target in test [2] is T1, human LIV-1. Put plainly: saturation binding, flow cytometry, MCF7 cells. The method, then:
as §1

Test [3] concerns the target T1, human LIV-1. Put plainly: saturation binding, flow cytometry, comparison of the cell lines of Table 1. The method, then: as §1
Test [4] addresses T2, cynomolgus monkey LIV-1 (cynomolgus monkey, UniProt Q5R9M9 28-743 (Pongo abelii entry)).
T2 construct: Recombinant on transfected CHO cells; also called cyno LIV-1; cyLIV-1
T2 chain: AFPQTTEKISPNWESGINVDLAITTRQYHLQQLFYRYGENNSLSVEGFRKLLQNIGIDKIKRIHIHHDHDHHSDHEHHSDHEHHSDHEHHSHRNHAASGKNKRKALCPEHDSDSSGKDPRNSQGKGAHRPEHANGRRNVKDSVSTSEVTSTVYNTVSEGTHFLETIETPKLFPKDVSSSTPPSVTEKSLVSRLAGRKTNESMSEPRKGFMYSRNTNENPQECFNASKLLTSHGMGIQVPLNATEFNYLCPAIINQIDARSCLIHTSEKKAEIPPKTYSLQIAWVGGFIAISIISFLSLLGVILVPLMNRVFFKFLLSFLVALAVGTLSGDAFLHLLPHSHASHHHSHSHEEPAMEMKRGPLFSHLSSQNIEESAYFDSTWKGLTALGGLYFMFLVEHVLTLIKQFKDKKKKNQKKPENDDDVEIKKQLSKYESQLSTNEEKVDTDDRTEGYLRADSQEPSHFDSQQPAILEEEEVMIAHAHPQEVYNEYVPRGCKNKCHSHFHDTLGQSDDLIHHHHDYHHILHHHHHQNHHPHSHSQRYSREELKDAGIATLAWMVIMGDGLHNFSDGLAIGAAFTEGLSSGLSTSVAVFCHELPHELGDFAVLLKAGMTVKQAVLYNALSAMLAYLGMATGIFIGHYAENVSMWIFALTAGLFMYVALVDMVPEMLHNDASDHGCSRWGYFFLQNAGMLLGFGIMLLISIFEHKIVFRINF
Nature of the test: saturation binding of AF647-labelled antibody, flow cytometry, CHO (cyLIV-1) cells. The method, then: as §1

The target of test [5] is T1, human LIV-1. Put plainly: saturation binding of AF647-labelled antibody, flow cytometry, MCF-7 (ATCC) cells, endogenous hLIV-1. As to the method: as §1
Test [6] concerns the target T1, human LIV-1. Put plainly: saturation binding of AF647-labelled antibody, flow cytometry, 293F (hLIV-1) cells.
In test [7] the target is T3, human LIV-1 (UniProt Q13433 29-755).
T3 chain: T1 sequence
Nature of the test: competition binding on CHO hLIV1 cells.

Test [8] deals with T3, human LIV-1. Put plainly: saturation binding, flow cytometry on MCF7 cells; AF-labeled.
In test [9] the target is T2, cynomolgus monkey LIV-1. Put plainly: saturation binding, CHO cells expressing cyno LIV-1 (FIG. 22).
In test [10] the target is T1, human LIV-1. Put plainly: competition flow cytometry, CHO cells expressing recombinant LIV-1, vs 5 nM AF647-labelled BR2-22a. As to the method: 1×10⁵ CHO cells expressing recombinant LIV-1 in PBS were aliquoted into each well of a 96-well v-bottom plates on ice. […] Cells were pelleted and washed 3 times with PBS. The cells were then pelleted and resuspended in 125 μL of PBS/BSA. Fluorescence was analyzed by flow cytometery, using percent of saturated fluorescent signal to determine percent labeled humanized BR2-22a antibody bound and to subsequently extrapolate the EC50 by fitting the data to a sigmoidal dose-response curve with variable slope.
All permutations of these five heavy chains and six light chains were then tested in a competition assay compared with BR2-22a (see FIG. 17).

The target in test [11] is T1, human LIV-1. Nature of the test: saturation binding, CHO cells expressing human LIV-1 (FIG. 22).
Test [12] deals with T3, human LIV-1. Nature of the test: saturation binding on CHO cells; apparent Kd.
Test [13] deals with T4, cynomolgus monkey LIV-1.
T4 chain: T2 chain
Put plainly: saturation binding on CHO cells; apparent Kd.

Test [14] addresses T1, human LIV-1. Nature of the test: competition flow cytometry, CHO cells expressing human LIV-1, vs 5 nM AF647-labelled BR2-14a. As to the method: (§2) 1×10⁵ CHO cells expressing recombinant human LIV-1 in PBS/BSA were aliquoted into each well of a 96-well v-bottom plates on ice. […] Cells were pelleted and washed 3 times with PBS/BSA. The cells were pelleted and resuspended in 125 μL of PBS/BSA. Fluorescence was analyzed by flow cytometry, using percent of saturated fluorescent signal to determine percent labeled murine LIV-1 mAb bound and to subsequently extrapolate the EC50 by fitting the data to a sigmoidal dose-response curve with variable slope.

Test [15] addresses T1, human LIV-1. Nature of the test: comparison of the EC50s of Table 3, CHO cells expressing human LIV-1. As to the method: as §2
Test [16] has as its target T3, human LIV-1. Put plainly: competition binding.
For test [17], the target named is T2, cynomolgus monkey LIV-1. Nature of the test: saturation binding of AF647-labelled antibody, flow cytometry, CHO cyLIV-1 cells. The method, then: (§3) 1×10⁵ antigen expressing cells (either MCF7 cells expressing human LIV-1, 293F cells, a transfected CHO cell line expressing human LIV-1 or a transfected CHO cell line expressing cyno LIV-1) were aliquoted per well of a 96-well v-bottom plates. […] Cells were pelleted and washed 3× with PBS/BSA. The cells were then pelleted and resuspended in 125 μL of PBS/BSA. Fluorescence was analyzed by flow cytometery, using percent of saturated fluorescent signal to determine percent bound and to subsequently calculate apparent Kd.
(§4) The KD for the murine Liv1 of BR2-22a (Table 5) was determined for human LIV-1 expressed as an endogenous protein in a human breast cancer cell line, in 293F cells or as a recombinant protein in a CHO cell line. The KD for BR2-22a was also determined for cyno LIV-1 expressed as a recombinant protein in a CHO cell line.

For test [18], the target named is T1, human LIV-1. Put plainly: saturation binding of AF647-labelled antibody, flow cytometry, MCF7 (ATCC) cells, endogenous hLIV-1. As to the method: as §3, §4
For test [19], the target named is T1, human LIV-1. Put plainly: saturation binding of AF647-labelled antibody, flow cytometry, CHO hLIV-1 cells. The method, then: as §3, §4
In test [20] the target is T1, human LIV-1. Nature of the test: saturation binding of AF647-labelled antibody, flow cytometry, 293F (hLIV-1) cells. As to the method: as §3, §4
This is another data set of the same source.

Test [21] has as its target T2, cynomolgus monkey LIV-1. Nature of the test: EC50 determination, CHO cells expressing recombinant cyno LIV-1. As to the method:
1×10⁵ CHO cells expressing recombinant cyno LIV-1 in PBS were aliquoted in each well of a 96-well v-bottom plates on ice. […] Cells were pelleted and washed 3 times with PBS. The cells were pelleted and resuspended in 125 μL of PBS/BSA. Fluorescence was analyzed by flow cytometry, using percent of saturated fluorescent signal to determine percent labeled murine LIV-1 mAb bound and to subsequently extrapolate the EC50 by fitting the data to a sigmoidal dose-response curve with variable slope.

B1: murine LIV-1 monoclonal antibody BR2-14a (antibody, V domains shown)
VH: QVQLQQSGAELVRSGASVKLSCTASGFNIEDYYMHWVKQRPKQGLEWIGWIDPENGDTEYAPTFQGKATMTADTSSNTAYLQLSSLTSEDTAVYYCNVHDAHYGTWFAYWGQGTLVTVSA
VL: DVLMTQTPLSLPVSLGDQASISCRSSQSIIRNDGNTYLEWYLQKPGQSPKLLIYRVSNRFSGVPDRFSGSGSGTDFTLKISRVEAEDLGVYYCFQGSHVPYTFGGGTKLEIKR
notes: Mouse monoclonal from hybridoma ATCC PTA-5705A; also called parental murine mAb; murine LIV-1 mAb
The EC50 is the concentration giving half of the maximal effect. B1: the Kd was 12.5 nM in the test with human LIV-1 [1]; 2.9 nM in the test with human LIV-1 [2]; 14 nM in the test with cynomolgus monkey LIV-1 [4]; 2.4 nM with human LIV-1 [5]; 2.7 nM in the test with human LIV-1 [6]; 0.8 µg/mL and 5.8 nM with human LIV-1 [8]. The “fold lower dissociation constant for non-recombinant LIV-1 of a human cell line than for recombinant LIV-1” value with human LIV-1 [3] is around 5 fold. For the same molecule, it took 3.42 µg/mL to reach a half-maximal effect with human LIV-1 [7] (EC50).

B2: humanized BR2-22a antibody HGLG (hLIV22) (antibody, V domains shown)
VH: QVQLVQSGAEVKKPGASVKVSCKASGLTIEDYYMHWVRQAPGQGLEWMGWIDPENGDTEYGPKFQGRVTMTRDTSINTAYMELSRLRSDDTAVYYCAVHNAHYGTWFAYWGQGTLVTVSS
VL: DVVMTQSPLSLPVTLGQPASISCRSSQSLLHSSGNTYLEWYQQRPGQSPRPLIYKISTRFSGVPDRFSGSGSGTDFTLKISRVEAEDVGVYYCFQGSHVPYTFGGGTKVEIKR
notes: Only variable regions tied to the tested antibody; also called humanized LIV22 antibody; hLIV-22 HG + hLIV-22 LG
B2: the binding result with cynomolgus monkey LIV-1 [9] is “binds”. Besides, in the test with human LIV-1 [10], the EC50 is 0.5 µg/mL. Besides, in the test with human LIV-1 [11], the “fold higher affinity (inverse of dissociation constant) than hLIV14” value is around 4 fold. The Kd with human LIV-1 [12] turned out to be 1.2 nM; in the test with cynomolgus monkey LIV-1 [13], 1.3 nM.

B3: humanized BR2-14a antibody HELE (antibody, V domains shown)
VH: B2 VH with L27F, T28N, M48I, G61A, K63T, R67K, V68A, R72A, A97N, N100D
VL: B2 VL with L29I, L30I, H31R, S32N, S33D, Y41F, P51L, K55R, I56V, T58N
notes: also called hLIV-1 HE + hLIV-1 LE
Take B3: in the test with human LIV-1 [14], the EC50 came out at 0.3 µg/mL. Also, the “fold better binding than the next humanized antibody HBLF” value in the test with human LIV-1 [15] was at least 2 fold.

B4: mouse monoclonal antibody BR2-22a (antibody, mouse IgG1, V domains shown)
VH: B1 VH with Q1E, F27L, K42E, A61G, T63K, E89G, N97T, D100N
VL: B2 VL with V3L, S7T, T14S, Q17D, P18Q, Q42L, R50K, V88L, V90L, V109L
notes: also called mAb2; parental BR2-22a
B4 yielded an EC50 with human LIV-1 [16] of 0.3 µg/mL. For the same molecule, the Kd stood at 4.2 nM with cynomolgus monkey LIV-1 [17]; 1.2 nM with human LIV-1 [12]; 1.1 nM in the test with human LIV-1 [18]; 1.5 nM with human LIV-1 [19]; 0.5 nM with human LIV-1 [20].

B5: humanized BR2-22a antibody HELG (antibody, V domains shown)
VH: B2 VH with T28N, M48I, R67K, V68A, R72A, A97T
VL: B2 VL
notes: also called hLIV-22 HE + hLIV-22 LG
With B5, the EC50 in the test with human LIV-1 [10] was 0.2 µg/mL.

B6: humanized BR2-14a antibody HBLB S239C (antibody, human IgG1, kappa, V domains shown)
VH: B2 VH with L27Y, G61A, K63T, V98R, N100D
VL: B2 VL with L29I, L30I, H31R, S32N, S33D, P51R, K55R, I56V, T58N
notes: also called LIV-14d; hLIV-14 HBLB S239C
Take B6: in the test with cynomolgus monkey LIV-1 [21], the binding result is reported as “binds”. For the same molecule, in the test with human LIV-1 [7], the response was half-maximal at 0.419 µg/mL (EC50).
